# Laboratory results from article PMC11414387.
# Biological target: FBXO11 (UniProt Q86XK2)
# Experiment: co-IP of exogenous proteins
# Conditions: reference: wild type
binding against the reference (sites S33),binding against the reference (sites S37),Substance
lost,–,β-catenin (from UniProt P35222) S33A
–,lost,β-catenin (from UniProt P35222) S37A
